PMC5479800, “Thioesterase YbgC affects motility by modulating c-di-GMP levels in Shewanella oneidensis” (Scientific Reports, 2017)

How the values were obtained:
Assay in all cases: purified protein
Type in all cases: biochemical, Shewanella oneidensis
Conditions in all cases: 25 °C, 200 mM sodium phosphate, pH 7.5 in table title, pH 7.0 in methods
purified protein [1] = substrate: CCCC(=O)SCCNC(=O)CCNC(=O)[C@H](O)C(C)(C)COP(=O)(O)OP(=O)(O)OC[C@H]1O[C@@H](n2cnc3c(N)ncnc32)[C@H](O)[C@@H]1OP(=O)(O)O
purified protein [2] = substrate: CC(=O)SCCNC(=O)CCNC(=O)[C@H](O)C(C)(C)COP(=O)(O)OP(=O)(O)OC[C@H]1O[C@@H](n2cnc3c(N)ncnc32)[C@H](O)[C@@H]1OP(=O)(O)O
purified protein [3] = substrate: CCCCCCCC(=O)SCCNC(=O)CCNC(=O)[C@H](O)C(C)(C)COP(=O)(O)OP(=O)(O)OC[C@H]1O[C@@H](n2cnc3c(N)ncnc32)[C@H](O)[C@@H]1OP(=O)(O)O
purified protein [4] = substrate: CCC(=O)SCCNC(=O)CCNC(=O)[C@H](O)C(C)(C)COP(=O)(O)OP(=O)(O)OC[C@H]1O[C@@H](n2cnc3c(N)ncnc32)[C@H](O)[C@@H]1OP(=O)(O)O

Protein | Km (purified protein [1]) [µM] | kcat (purified protein [1]) [s⁻¹] | kcat/Km (purified protein [1]) [M⁻¹ s⁻¹] | Km (purified protein [2]) [µM] | kcat (purified protein [2]) [s⁻¹] | kcat/Km (purified protein [2]) [M⁻¹ s⁻¹] | Km (purified protein [3]) [µM] | kcat (purified protein [3]) [s⁻¹] | kcat/Km (purified protein [3]) [M⁻¹ s⁻¹] | Km (purified protein [4]) [µM] | kcat (purified protein [4]) [s⁻¹] | kcat/Km (purified protein [4]) [M⁻¹ s⁻¹]
SoYbgC (S. oneidensis YbgC) (Shewanella oneidensis MR-1) (protein) MTFNWPISVYYEDTDAGGVVYHSNYLNFFERARTEWLKALGVSQTALLADDTAFVVKRAELDFKKAARFEQNLIVETKVIELKKASLVFHQRLVDHLGDCYCEGTVLVACVALSRMRPRAIPLNIVQEFDSAS | 17 ± 2 | 1.3 ± 0.1 | 76000 | 3.5 ± 0.4 | 8 ± 0.7 | 2.3e+06 | 34 ± 4 | 0.15 ± 0.01 | 4400 | 4.8 ± 0.6 | 3.9 ± 5 | 810000
SoYbgC (S. oneidensis YbgC) (Shewanella oneidensis MR-1; D15N) (protein) MTFNWPISVYYEDTNAGGVVYHSNYLNFFERARTEWLKALGVSQTALLADDTAFVVKRAELDFKKAARFEQNLIVETKVIELKKASLVFHQRLVDHLGDCYCEGTVLVACVALSRMRPRAIPLNIVQEFDSAS |  |  |  | 231 ± 37 |  |  |  |  |  |  |  | 
